Laboratory results reported in the supplement of paper PMC5998384.

Columns and labels:
HeLa Kyoto [1] = assay: melting temperature (median over replicates), in situ; higher = more thermally stable
HeLa Kyoto [2] = assay: solubility in G1/S (NP-40 vs SDS abundance) (log2 ratio); higher = more soluble; settings: cell cycle stage: G1/S
HeLa Kyoto [3] = assay: thermal stability score vs G1/S (z-score of summed log2 fold changes over temperatures); higher = more thermally stable than in G1/S
HeLa Kyoto [4] = assay: solubility change mitosis vs G1/S (difference of NP-40 vs SDS log2 ratios) (log2 ratio difference); higher = more soluble in mitosis
[5] = cell cycle stage: early G1 (4.5 h after nocodazole release)
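Wherever melting temperature (median over replicates), in situ is given: HeLa Kyoto cells synchronized by double thymidine or nocodazole block, proteins quantified by TMT10plex mass spectrometry, three independent biological replicates.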
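Wherever solubility change mitosis vs G1/S (difference of NP-40 vs SDS log2 ratios) is given: synchronized HeLa Kyoto cells (double thymidine block for G1/S, nocodazole release for mitosis), protein amounts in NP-40 versus SDS lysates quantified by mass spectrometry, three biological replicates.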
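Wherever solubility in G1/S (NP-40 vs SDS abundance) is given: HeLa Kyoto cells arrested at G1/S by double thymidine block, proteins quantified by TMT10plex mass spectrometry in mild NP-40 versus SDS extracts, three biological replicates.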
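Wherever thermal stability score vs G1/S (z-score of summed log2 fold changes over temperatures) is given: synchronized HeLa Kyoto cells, proteins quantified by TMT10plex mass spectrometry, three biological replicates, mitosis taken 0.5 h after nocodazole release, G1/S directly after double thymidine block.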

Substance | melting temperature (HeLa Kyoto [1]; cell cycle stage: G1/S) [°C] | melting temperature (HeLa Kyoto [1]; cell cycle stage: mitosis) [°C] | solubility in G1/S (log2) (HeLa Kyoto [2]) | thermal stability score (HeLa Kyoto [3]; [5]) | thermal stability score (HeLa Kyoto [3]; cell cycle stage: mitosis) | solubility change mitosis (log2) (HeLa Kyoto [4])
MWKLLPAAGPAGGEPYRLLTGVEYVVGRKNCAILIENDQSISRNHAVLTANFSVTNLSQTDEIPVLTLKDNSKYGTFVNEEKMQNGFSRTLKSGDGITFGVFGSKFRIEYEPLVACSSCLDVSGKTALNQAILQLGGFTVNNWTEECTHLVMVSVKVTIKTICALICGRPIVKPEYFTEFLKAVESKKQPPQIESFYPPLDEPSIGSKNVDLSGRQERKQIFKGKTFIFLNAKQHKKLSSAVVFGGGEARLITEENEEEHNFFLAPGTCVVDTGITNSQTLIPDCQKKWIQSIMDMLQRQGLRPIPEAEIGLAVIFMTTKNYCDPQGHPSTGLKTTTPGPSLSQGVSVDEKLMPSAPVNTTTYVADTESEQADTWDLSERPKEIKVSKMEQKFRMLSQDAPTVKESCKTSSNNNSMVSNTLAKMRIPNYQLSPTKLPSINKSKDRASQQQQTNSIRNYFQPSTKKRERDEENQEMSSCKSARIETSCSLLEQTQPATPSLWKNKEQHLSENEPVDTNSDNNLFTDTDLKSIVKNSASKSHAAEKLRSNKKREMDDVAIEDEVLEQLFKDTKPELEIDVKVQKQEEDVNVRKRPRMDIETNDTFSDEAVPESSKISQENEIGKKRELKEDSLWSAKEISNNDKLQDDSEMLPKKLLLTEFRSLVIKNSTSRNPSGINDDYGQLKNFKKFKKVTYPGAGKLPHIIGGSDLIAHHARKNTELEEWLRQEMEVQNQHAKEESLADDLFRYNPYLKRRR [NBN] | 48.7 | 49.7 | -0.0211 | 0.727 | 1.8 | -0.152
MVWDRQTKMEYEWKPDEQGLQQILQLLKESQSPDTTIQRTVQQKLEQLNQYPDFNNYLIFVLTKLKSEDEPTRSLSGLILKNNVKAHFQNFPNGVTDFIKSECLNNIGDSSPLIRATVGILITTIASKGELQNWPDLLPKLCSLLDSEDYNTCEGAFGALQKICEDSAEILDSDVLDRPLNIMIPKFLQFFKHSSPKIRSHAVACVNQFIISRTQALMLHIDSFIENLFALAGDEEPEVRKNVCRALVMLLEVRMDRLLPHMHNIVEYMLQRTQDQDENVALEACEFWLTLAEQPICKDVLVRHLPKLIPVLVNGMKYSDIDIILLKGDVEEDETIPDSEQDIRPRFHRSRTVAQQHDEDGIEEEDDDDDEIDDDDTISDWNLRKCSAAALDVLANVYRDELLPHILPLLKELLFHHEWVVKESGILVLGAIAEGCMQGMIPYLPELIPHLIQCLSDKKALVRSITCWTLSRYAHWVVSQPPDTYLKPLMTELLKRILDSNKRVQEAACSAFATLEEEACTELVPYLAYILDTLVFAFSKYQHKNLLILYDAIGTLADSVGHHLNKPEYIQMLMPPLIQKWNMLKDEDKDLFPLLECLSSVATALQSGFLPYCEPVYQRCVNLVQKTLAQAMLNNAQPDQYEAPDKDFMIVALDLLSGLAEGLGGNIEQLVARSNILTLMYQCMQDKMPEVRQSSFALLGDLTKACFQHVKPCIADFMPILGTNLNPEFISVCNNATWAIGEISIQMGIEMQPYIPMVLHQLVEIINRPNTPKTLLENTAITIGRLGYVCPQEVAPMLQQFIRPWCTSLRNIRDNEEKDSAFRGICTMISVNPSGVIQDFIFFCDAVASWINPKDDLRDMFCKILHGFKNQVGDENWRRFSDQFPLPLKERLAAFYGV [TNPO1] | 50.3 | 49.7 | -0.146 | 1.15 | -1.3 | -0.175
MAEAMDLGKDPNGPTHSSTLFVRDDGSSMSFYVRPSPAKRRLSTLILHGGGTVCRVQEPGAVLLAQPGEALAEASGDFISTQYILDCVERNERLELEAYRLGPASAADTGSEAKPGALAEGAAEPEPQRHAGRIAFTDADDVAILTYVKENARSPSSVTGNALWKAMEKSSLTQHSWQSLKDRYLKHLRGQEHKYLLGDAPVSPSSQKLKRKAEEDPEAADSGEPQNKRTPDLPEEEYVKEEIQENEEAVKKMLVEATREFEEVVVDESPPDFEIHITMCDDDPPTPEEDSETQPDEEEEEEEEKVSQPEVGAAIKIIRQLMEKFNLDLSTVTQAFLKNSGELEATSAFLASGQRADGYPIWSRQDDIDLQKDDEDTREALVKKFGAQNVARRIEFRKK [TERF2IP] | 49.8 | 52.4 | 0.503 | 1.96 | 1.16 | 0.0568
MTTEKSLVTEAENSQHQQKEEGEEAINSGQQEPQQEESCQTAAEGDNWCEQKLKASNGDTPTHEDLTKNKERTSESRGLSRLFSSFLKRPKSQVSEEEGKEVESDKEKGEGGQKEIEFGTSLDEEIILKAPIAAPEPELKTDPSLDLHSLSSAETQPAQEELREDPDFEIKEGEGLEECSKIEVKEESPQSKAETELKASQKPIRKHRNMHCKVSLLDDTVYECVVEKHAKGQDLLKRVCEHLNLLEEDYFGLAIWDNATSKTWLDSAKEIKKQVRGVPWNFTFNVKFYPPDPAQLTEDITRYYLCLQLRQDIVAGRLPCSFATLALLGSYTIQSELGDYDPELHGVDYVSDFKLAPNQTKELEEKVMELHKSYRSMTPAQADLEFLENAKKLSMYGVDLHKAKDLEGVDIILGVCSSGLLVYKDKLRINRFPWPKVLKISYKRSSFFIKIRPGEQEQYESTIGFKLPSYRAAKKLWKVCVEHHTFFRLTSTDTIPKSKFLALGSKFRYSGRTQAQTRQASALIDRPAPHFERTASKRASRSLDGAAAVDSADRSPRPTSAPAITQGQVAEGGVLDASAKKTVVPKAQKETVKAEVKKEDEPPEQAEPEPTEAWKVEKTHIEVTVPTSNGDQTQKLAEKTEDLIRMRKKKRERLDGENIYIRHSNLMLEDLDKSQEEIKKHHASISELKKNFMESVPEPRPSEWDKRLSTHSPFRTLNINGQIPTGEGPPLVKTQTVTISDNANAVKSEIPTKDVPIVHTETKTITYEAAQTDDNSGDLDPGVLLTAQTITSETPSSTTTTQITKTVKGGISETRIEKRIVITGDADIDHDQVLVQAIKEAKEQHPDMSVTKVVVHQETEIADE [EPB41] | 51.6 | 51.6 | -0.0892 | -0.449 | -0.552 | -0.0541
MSGQRVDVKVVMLGKEYVGKTSLVERYVHDRFLVGPYQNTIGAAFVAKVMSVGDRTVTLGIWDTAGSERYEAMSRIYYRGAKAAIVCYDLTDSSSFERAKFWVKELRSLEEGCQIYLCGTKSDLLEEDRRRRRVDFHDVQDYADNIKAQLFETSSKTGQSVDELFQKVAEDYVSVAAFQVMTEDKGVDLGQKPNPYFYSCCHH [RAB24] | 53.8 | 54.2 | -0.101 | -0.25 | -0.316 | -0.172
CHD3 | 46.5 | 49.1 | -0.643 | 0.67 | 1.73 | 0.14
MSSSPVKRQRMESALDQLKQFTTVVADTGDFHAIDEYKPQDATTNPSLILAAAQMPAYQELVEEAIAYGRKLGGSQEDQIKNAIDKLFVLFGAEILKKIPGRVSTEVDARLSFDKDAMVARARRLIELYKEAGISKDRILIKLSSTWEGIQAGKELEEQHGIHCNMTLLFSFAQAVACAEAGVTLISPFVGRILDWHVANTDKKSYEPLEDPGVKSVTKIYNYYKKFSYKTIVMGASFRNTGEIKALAGCDFLTISPKLLGELLQDNAKLVPVLSAKAAQASDLEKIHLDEKSFRWLHNEDQMAVEKLSDGIRKFAADAVKLERMLTERMFNAENGK [TALDO1] | 54.4 | 52.5 | 0.572 | -7.63 | -3.31 | -0.00294
ITSN2 | 51.9 | 49.1 | -0.159 | 0.178 | 0.129 | -0.0144
MAPYSLLVTRLQKALGVRQYHVASVLCQRAKVAMSHFEPNEYIHYDLLEKNINIVRKRLNRPLTLSEKIVYGHLDDPASQEIERGKSYLRLRPDRVAMQDATAQMAMLQFISSGLSKVAVPSTIHCDHLIEAQVGGEKDLRRAKDINQEVYNFLATAGAKYGVGFWKPGSGIIHQIILENYAYPGVLLIGTDSHTPNGGGLGGICIGVGGADAVDVMAGIPWELKCPKVIGVKLTGSLSGWSSPKDVILKVAGILTVKGGTGAIVEYHGPGVDSISCTGMATICNMGAEIGATTSVFPYNHRMKKYLSKTGREDIANLADEFKDHLVPDPGCHYDQLIEINLSELKPHINGPFTPDLAHPVAEVGKVAEKEGWPLDIRVGLIGSCTNSSYEDMGRSAAVAKQALAHGLKCKSQFTITPGSEQIRATIERDGYAQILRDLGGIVLANACGPCIGQWDRKDIKKGEKNTIVTSYNRNFTGRNDANPETHAFVTSPEIVTALAIAGTLKFNPETDYLTGTDGKKFRLEAPDADELPKGEFDPGQDTYQHPPKDSSGQHVDVSPTSQRLQLLEPFDKWDGKDLEDLQILIKVKGKCTTDHISAAGPWLKFRGHLDNISNNLLIGAINIENGKANSVRNAVTQEFGPVPDTARYYKKHGIRWVVIGDENYGEGSSREHAALEPRHLGGRAIITKSFARIHETNLKKQGLLPLTFADPADYNKIHPVDKLTIQGLKDFTPGKPLKCIIKHPNGTQETILLNHTFNETQIEWFRAGSALNRMKELQQ [ACO2] | 51.3 | 51.3 | 0.183 | 0.706 | 0.579 | -0.179
